# Measurements as given in the supplement of paper PMC10567573.
# B1: INTS3 (parent)
# chain: YPPLEGHVRQGVFSSLNHIVEKRV
# Variants of: B1
# Experiment: protein stability index of a GFP-peptide fusion (GPS, HEK-293T) (PSI 1-6); higher = more stable
# Conditions: c terminus: a fixed tail appended
# 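Note: lentivirally expressed fusions sorted by FACS into six bins by GFP to DsRed ratio, PSI derived from sequencing read proportions per bin multiplied by bin number.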
row,Variant,protein stability index
1,YPPLEGHVRQGVFSSLNHIVKKRV,2.26
2,YPPLEGHVRQGVFSSLNHIVPKRV,2.26
3,YPPLEGHVRQGVFSSLNHIVDKRV,3.35
4,YPPLEGHVRQGVFSSLNHIVFKRV,2.72
5,YPPLEGHVRQGVFSSLNHIVHKRV,2.86
6,YPPLEGHVRQGVFSSLNHIVGKRV,2.68
7,YPPLEGHVRFGVFSSLNHIVEKRV,2.62
8,YPPLEGHVRDGVFSSLNHIVEKRV,3.18
9,YPPLEGHVRHGVFSSLNHIVEKRV,2.69
10,YPPLEGHVRTGVFSSLNHIVEKRV,1.83
11,YPPLEGHVRVGVFSSLNHIVEKRV,2.28
12,YPPLEGHVRSGVFSSLNHIVEKRV,3.33
13,YPPLEGHVRIGVFSSLNHIVEKRV,1.62
14,YPPLEGHVRQGVFSSLNHTVEKRV,2.88
15,YPPLEGHVRQGVFSSLNHPVEKRV,2.47
16,YPPLEGHVRQGVFSSLNHRVEKRV,3.04
17,YPPLEGHVRQGVFSSLNHMVEKRV,3.33
18,YPPLEGHVRQGVFSSLNHHVEKRV,2.65
19,YPPLEGHVRQGVFSSLNHQVEKRV,2.52
20,YPPLEGHVRQGVFSSLNHFVEKRV,2.31
21,YPPLEGHVRQGVFSSLNHAVEKRV,3.17
22,YPPLEGHVRQGVFSSLNHNVEKRV,3.23
23,YPPLEGHVRQGVFSSLNHVVEKRV,2.52
24,YPPLEGHVRQHVFSSLNHIVEKRV,2.29

row,Variant,protein stability index
1,YPPLEGHVRQTVFSSLNHIVEKRV,2.27
2,YPPLEGHVRQEVFSSLNHIVEKRV,2.88
3,YPPLEGHVRQPVFSSLNHIVEKRV,3.3
4,YPPLEGHVRQIVFSSLNHIVEKRV,1.87
5,YPPLEGHVRQQVFSSLNHIVEKRV,2.35
6,YPPLEGHVRQCVFSSLNHIVEKRV,1.48
7,YPPLEGHVRQGVFSSLNMIVEKRV,3.03
8,YPPLEGHVRQGVFSSLNSIVEKRV,2.65
9,YPPLEGHVRQGVFSSLNPIVEKRV,3.04
10,YPPLEGHVRQGVFSSLNFIVEKRV,1.97
11,YPPLEGHVRQGVFSSLNRIVEKRV,3.42
12,YPPLEGHVRQGVFSSLNTIVEKRV,2.16
13,YPPLEGHVRQGVFSSLNDIVEKRV,3.39
14,YPPQEGHVRQGVFSSLNHIVEKRV,2.74
15,YPPIEGHVRQGVFSSLNHIVEKRV,2.74
16,YPPTEGHVRQGVFSSLNHIVEKRV,1.79
17,YPPWEGHVRQGVFSSLNHIVEKRV,2.91
18,YPPFEGHVRQGVFSSLNHIVEKRV,3.06
19,YPPAEGHVRQGVFSSLNHIVEKRV,2.7
20,YPPGEGHVRQGVFSSLNHIVEKRV,1.35
21,YPPLEGHVRQGVFSCLNHIVEKRV,1.69
22,YPPLEGHVRQGVFSLLNHIVEKRV,1.86
23,YPPLEGHVRQGVFSYLNHIVEKRV,1.33
24,YPPLEGHVRQGVFSDLNHIVEKRV,2.95

row,Variant,protein stability index
1,YPPLEGHVRQGVFSILNHIVEKRV,1.64
2,YPPLEGHVRQGVFSFLNHIVEKRV,2.32
3,YPPLEGHVRQGVFSQLNHIVEKRV,2.28
4,YPPLEGHVRQGVFSSLNHIVEKVV,1.85
5,YPPLEGHVRQGVFSSLNHIVEKGV,2.2
6,YPPLEGHVRQGVFSSLNHIVEKQV,2.83
7,YPPLEGHVRQGVFSSLNHIVEKDV,2.83
8,YPPLEGHVRQGVFSSLNHIVEKFV,1.81
9,YPPLEGHVRQGVFSSLNHIVEKKV,2.7
10,YPPLEGHVRQGVFSSLNHIVEKIV,2.17
11,YPPLEGHVRQGVFSSLNHIVEKLV,1.98
12,YPPLEGHVRQGVFSSLNHIVEKCV,2.22
13,YPPLEGHVRQGVFSSLNHIVEKYV,2.48
14,YPPLEGHVRQGVFSSLNHIVEKTV,2.53
15,YPPLEGHVRQGVFSSLNHIVEKPV,2.39
16,YPPLEGHERQGVFSSLNHIVEKRV,3.53
17,YPPLEGHIRQGVFSSLNHIVEKRV,2.38
18,YPPLEGHPRQGVFSSLNHIVEKRV,2.31
19,YPPLEGHSRQGVFSSLNHIVEKRV,3
20,YPPLEGHDRQGVFSSLNHIVEKRV,3.25
21,YPPLEGHGRQGVFSSLNHIVEKRV,2.19
22,YPPLEGHCRQGVFSSLNHIVEKRV,2.86
23,YPPLEGHLRQGVFSSLNHIVEKRV,2.13
24,YPPLEGHKRQGVFSSLNHIVEKRV,2.84

row,Variant,protein stability index
1,YPPLEGNVRQGVFSSLNHIVEKRV,3.13
2,YPPLEGQVRQGVFSSLNHIVEKRV,2.36
3,YPPLEGDVRQGVFSSLNHIVEKRV,2.79
4,YPPLEGVVRQGVFSSLNHIVEKRV,2.37
5,YPPLEGHVDQGVFSSLNHIVEKRV,3.42
6,YPPLEGHVTQGVFSSLNHIVEKRV,2.13
7,YPPLEGHVSQGVFSSLNHIVEKRV,2.51
8,YPPLEGHVEQGVFSSLNHIVEKRV,3.52
9,YPPLEGHVQQGVFSSLNHIVEKRV,3.28
10,YPPLEGHVAQGVFSSLNHIVEKRV,3.24
11,YPPLEGHVVQGVFSSLNHIVEKRV,3.14
12,YPPLEGHVYQGVFSSLNHIVEKRV,1.92
13,YPPLEGHVLQGVFSSLNHIVEKRV,2.07
14,YPPLEYHVRQGVFSSLNHIVEKRV,2.38
15,YPPLEHHVRQGVFSSLNHIVEKRV,2.98
16,YPPLEWHVRQGVFSSLNHIVEKRV,2.65
17,YPPLEMHVRQGVFSSLNHIVEKRV,2.51
18,YPPLELHVRQGVFSSLNHIVEKRV,2.06
19,YPPLETHVRQGVFSSLNHIVEKRV,3.99
20,YPPLEDHVRQGVFSSLNHIVEKRV,2.81
21,YPPLEEHVRQGVFSSLNHIVEKRV,3.51
22,YPPLEKHVRQGVFSSLNHIVEKRV,2.13
23,YPPLEGHVRQGVFSSLNHIVEKRS,2.58
24,YPPLEGHVRQGVFSSLNHIVEKRP,2.74

row,Variant,protein stability index
1,YPPLEGHVRQGVFSSLNHIVEKRL,2.78
2,YPPLEGHVRQGVFSSLNHIVEKRC,2.01
3,YPPLEGHVRQGVFSSLNHIVEKRW,2.68
4,YPPLEGHVRQGVFSSLNHIVEKRG,3.08
5,YPPLEGHVRQGVFSSLNHIVEKRY,1.95
6,YPPLEGHVRQGVFSSLNHIVEKRI,2.69
7,YPPLEGHVRQGVFSSVNHIVEKRV,3.1
8,YPPLEGHVRQGVFSSNNHIVEKRV,3.3
9,YPPLEGHVRQGVFSSRNHIVEKRV,4.03
10,YPPLEGHVRQGVFSSMNHIVEKRV,2.39
11,YPPLEGHVRQGVFSSLFHIVEKRV,1.78
12,YPPLEGHVRQGVFSSLRHIVEKRV,2.44
13,YPPLEGHVRQGVFSSLAHIVEKRV,2.48
14,YPPLEGHVRQGVFSSLEHIVEKRV,2.63
15,YPPLEGHVRQGVFSSLGHIVEKRV,2.46
16,YPPLEGHVRQGVFSSLMHIVEKRV,1.64
17,YDPLEGHVRQGVFSSLNHIVEKRV,3.36
18,YEPLEGHVRQGVFSSLNHIVEKRV,3.54
19,YLPLEGHVRQGVFSSLNHIVEKRV,2.7
20,YKPLEGHVRQGVFSSLNHIVEKRV,2.49
21,YYPLEGHVRQGVFSSLNHIVEKRV,2.6
22,YAPLEGHVRQGVFSSLNHIVEKRV,2.18
23,YIPLEGHVRQGVFSSLNHIVEKRV,1.55
24,YHPLEGHVRQGVFSSLNHIVEKRV,1.82

row,Variant,protein stability index
1,YFPLEGHVRQGVFSSLNHIVEKRV,2.71
2,YPPLEGHVRQGVKSSLNHIVEKRV,3.16
3,YPPLEGHVRQGVWSSLNHIVEKRV,2.4
4,YPPLEGHVRQGVNSSLNHIVEKRV,3.46
5,YPPLEGHVRQGVASSLNHIVEKRV,3.55
6,YPPLEGHVRQGVRSSLNHIVEKRV,3.32
7,YPPLEGHVRQGVGSSLNHIVEKRV,3.33
8,YPPLEGHVRQGVISSLNHIVEKRV,3.6
9,YPPLEGHVRQGVVSSLNHIVEKRV,3.7
10,YPKLEGHVRQGVFSSLNHIVEKRV,3.04
11,YPHLEGHVRQGVFSSLNHIVEKRV,2.9
12,YPYLEGHVRQGVFSSLNHIVEKRV,2.08
13,YPVLEGHVRQGVFSSLNHIVEKRV,2.65
14,YPCLEGHVRQGVFSSLNHIVEKRV,2.78
15,YPMLEGHVRQGVFSSLNHIVEKRV,2.67
16,YPGLEGHVRQGVFSSLNHIVEKRV,2.9
17,YPALEGHVRQGVFSSLNHIVEKRV,2.43
18,YPLLEGHVRQGVFSSLNHIVEKRV,2.98
19,YPPLEGHVRQGRFSSLNHIVEKRV,3.5
20,YPPLEGHVRQGYFSSLNHIVEKRV,2.54
21,YPPLEGHVRQGHFSSLNHIVEKRV,2.53
22,YPPLEGHVRQGAFSSLNHIVEKRV,2.58
23,YPPLEGHVRQGTFSSLNHIVEKRV,3.27
24,YPPLEGHVRQGCFSSLNHIVEKRV,2.21

row,Variant,protein stability index
1,YPPLEGHVRQGKFSSLNHIVEKRV,3.63
2,YPPLEGHVRQGQFSSLNHIVEKRV,3.95
3,YPPLEGHVRQGVFDSLNHIVEKRV,3.52
4,YPPLEGHVRQGVFMSLNHIVEKRV,2.07
5,YPPLEGHVRQGVFKSLNHIVEKRV,2.6
6,YPPLEGHVRQGVFASLNHIVEKRV,2.75
7,YPPLEGHVRQGVFPSLNHIVEKRV,2.22
8,YPPLEGHVRQGVFQSLNHIVEKRV,3.01
9,YPPLEGHVRQGVFNSLNHIVEKRV,2.41
10,YPPLEGHVRQGVFRSLNHIVEKRV,3.27
11,YPPLEGHVRQGVFSSLNHIVERRV,2.75
12,YPPLEGHVRQGVFSSLNHIVESRV,2.09
13,YPPLEGHVRQGVFSSLNHIVEDRV,2.2
14,YPPLEGHVRQGVFSSLNHIVENRV,2.46
15,YPPLEGHVRQGVFSSLNHIVEFRV,3.12
16,YPPLEGHVRQGVFSSLNHINEKRV,2.34
17,YPPLEGHVRQGVFSSLNHIPEKRV,2.64
18,YPPLEGHVRQGVFSSLNHIGEKRV,1.76
19,YPPLEGHVRQGVFSSLNHISEKRV,2.29
20,YPPLEGHVRQGVFSSLNHIQEKRV,2.72
21,YPPLEGHVRQGVFSSLNHIREKRV,2.9
22,YPPLEGHVRQGVFSSLNHIDEKRV,3.13
23,YPPLEGHVRQGVFSSLNHIHEKRV,2.36
24,YPPLEGHVRQGVFSSLNHIMEKRV,2.7

row,Variant,protein stability index
1,YPPLEGHVRQGVFSSLNHIKEKRV,2.43
2,YPPLEGHVRQGVFSSLNHITEKRV,2.48
3,YPPLEGHVRQGVFSSLNHICEKRV,2
4,YPPLEGHVRQGVFSSLNHIYEKRV,2.27
5,GPPLEGHVRQGVFSSLNHIVEKRV,3.43
6,MPPLEGHVRQGVFSSLNHIVEKRV,3.59
7,LPPLEGHVRQGVFSSLNHIVEKRV,3.53
8,RPPLEGHVRQGVFSSLNHIVEKRV,4.09
9,SPPLEGHVRQGVFSSLNHIVEKRV,3.78
10,DPPLEGHVRQGVFSSLNHIVEKRV,3.85
11,HPPLEGHVRQGVFSSLNHIVEKRV,4.07
12,CPPLEGHVRQGVFSSLNHIVEKRV,3.94
13,APPLEGHVRQGVFSSLNHIVEKRV,4.01
14,YPPLWGHVRQGVFSSLNHIVEKRV,1.9
15,YPPLYGHVRQGVFSSLNHIVEKRV,1.87
16,YPPLTGHVRQGVFSSLNHIVEKRV,1.96
17,YPPLHGHVRQGVFSSLNHIVEKRV,2.24
18,YPPLFGHVRQGVFSSLNHIVEKRV,1.66
19,YPPLAGHVRQGVFSSLNHIVEKRV,2.52
20,YPPLMGHVRQGVFSSLNHIVEKRV,2.24
